Where “and” joins values, the source holds several entries; their conditions need not be identical. Equal values may be shown once. Each block holds one binder with its values, some of them ahead of it.
Experiments:
human CCR8 [1] = molecular target: T1, human CCR8 (human, UniProt P51685 1-355); assay: cell-based or functional assay
human CCR8 [2] = molecular target: T1, human CCR8; assay: cell-based or functional assay; remark: listed apart in the source
human CCR8 [3] = molecular target: T1, human CCR8; assay: cell-based or functional assay; remark: listed apart in the source
human CCR8 [4] = molecular target: T1, human CCR8; assay: cell-based or functional assay; remark: listed apart in the source
human CCR8 [5] = molecular target: T1, human CCR8; assay: flow cytometry, human activated T cells
Protocol: (§1) Briefly, 1·10⁵ cells per well in a 96 well plate were incubated with a dilution of unconjugated anti-CCR8 mAb at 10 μg/mL then diluted at 1/3.33, 4 dilution points (during 30 min at 4° C.). […] To determine EC50 value, 8 concentrations of anti-CCR8 mAb were tested. Unbound antibodies were washed away with PBS (Invitrogen by Thermofisher Scientific, Illkirch-Graffenstaden, France) supplemented by 2% Fetal Bovine Serum (Invitrogen by Thermofisher Scientific, Illkirch-Graffenstaden, France) and 2 mM EDTA (Invitrogen by Thermofisher Scientific, Illkirch-Graffenstaden, France). Subsequently, cells are centrifuged (5 min at 400 g) and bound antibody is detected with F(ab′)₂-Goat anti-Mouse IgG (H+L) Cross-Adsorbed Secondary Antibody, Alexa Fluor 488 (dilution 1/500) (Invitrogen by Thermofisher Scientific, Illkirch-Graffenstaden, France) or with F(ab′)₂-Goat anti-Human IgG Fc Secondary Antibody, PE (Invitrogen by Thermofisher Scientific, Illkirch-Graffenstaden, France) (dilution 1/1000) at 4° C. for 30 min. Detection reagent is washed away and cells are centrifuged (5 min at 400 g) and resuspended in 30 μL PBS. Bound detection antibody is quantified on a MacsQuant16 (Miltenyi, Gladbach, Germany) (B1 or B2 channel, 5000 events per acquisition).
(§2) Binding characteristics of anti-CCR8 mAb cellular reactivity was further investigated by testing their binding to activated T cells.

human CCR8 [6] = molecular target: T1, human CCR8; assay: flow cytometry, HUT78 cells (native CCR8)
human CCR8 [7] = molecular target: T1, human CCR8; assay: flow cytometry, hCCR8 transfected CHOK1 cells
Protocol: as §1
EC50 values were not constantly determined in the same experiments.

human CCR8 [8] = molecular target: T1, human CCR8; assay: flow cytometry, human activated T cells pre-incubated with 200 nM hCCL1
Protocol: as §1, §2

human CCR8 [9] = molecular target: T1, human CCR8; assay: competition HTRF on HEK-293 cells with hCCR8; blocked ligand CCL1-AF647 [cont.]
pm5 = pm5 (human, sulfated tyrosines at Y15 and Y17); assay: ELISA on coated peptide [cont.]
pm5 (human, sulfated tyrosines at Y15 and Y17), sequence (peptide, as listed by the source): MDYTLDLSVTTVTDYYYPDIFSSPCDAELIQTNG
How it was run: (§3)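 In this direct ELISA, CCR8-related peptides coated at 500 ng/mL are probed with anti-CCR8 mAbs (1 μg/mL, also 1/10 dilution; 90 min, room temperature). Read-out is TMB optical density.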

pm6 = pm6 (human, sulfated tyrosines at Y16 and Y17); assay: ELISA on coated peptide [cont.]
pm6 (human, sulfated tyrosines at Y16 and Y17), sequence (peptide, as listed by the source): as above
How it was run: as §3

pm8 = pm8 (human, sulfated tyrosines at Y15, Y16 and Y17); assay: ELISA on coated peptide [cont.]
pm8 (human, sulfated tyrosines at Y15, Y16 and Y17), sequence (peptide, as listed by the source): as above
How it was run: as §3

pm3 = pm3 (human, sulfated tyrosine at Y17); assay: ELISA on coated peptide [cont.]
pm3 (human, sulfated tyrosine at Y17), sequence (peptide, as listed by the source): as above
How it was run: as §3

human CCR8 [10] = molecular target: T1, human CCR8; assay: flow cytometry, hCCR8 transfected CHOK1 cells; remark: listed apart in the source
human CCR8 [11] = molecular target: T1, human CCR8; assay: competition flow cytometry on hCCR8 transfected CHO cells; blocked ligand CCL1-AF647 [cont.]

IC50 (Gi2 BRET, pH 6.5) (human CCR8 [1]): 0.018 µg/ml and 0.12 nM
IC50 (Gi2 BRET, pH 7.4) (human CCR8 [1]): 0.02 µg/ml and 0.134 nM
hCCL1 (100 nM) residual response, Protocol #2, mAb 0.08 µg/mL (human CCR8 [2]): 85%
hCCL1 (100 nM) residual response, Protocol #2, mAb 0.4 µg/mL (human CCR8 [2]): 94%
hCCL1 (100 nM) residual response, Protocol #2, mAb 10 µg/mL (human CCR8 [2]): 60%
hCCL1 (100 nM) residual response, Protocol #3, mAb 0.05 µg/mL (human CCR8 [2]): 93%
hCCL1 (100 nM) residual response, Protocol #3, mAb 0.5 µg/mL (human CCR8 [2]): 85%
hCCL1 (100 nM) residual response, Protocol #3, mAb 5 µg/mL (human CCR8 [2]): 62%
Top plateau value (% of hCCL1 100 nM) with 5 µg/mL mAb, Protocol #3 (human CCR8 [3]): 794%
ADCC % Max lysis, NK cells Donor 3 (human CCR8 [4]): 16%
ADCC % Max lysis, NK cells Donor 4 (human CCR8 [4]): 19%
ADCC EC50, NK cells Donor 3 (human CCR8 [4]): 0.349 nM
ADCC EC50, NK cells Donor 4 (human CCR8 [4]): 1.91 nM
% of labelled cells (human CCR8 [5]): 63%
% of labelled cells (human CCR8 [6]): 93%
EC50 (human CCR8 [7]): 0.1 nM
% of labelled cells (human CCR8 [8]): 54%
IC50 (read off the curve) (human CCR8 [9]): ~0.02 µg/mL
B1: 3-82 (antibody, human IgG1, kappa, V domains shown)
VH: QVQLVESGGGVVQPGRSLRLSCAASGFTFSNYRMHWVRQAPGKGLEWIAVIKVKSDNYGANYADSVKGRFTISRDNSKNTLYLQMNSLRAEDTAVYYCSSPTYPGSSGFAYWGQGTLVTVSS
VL: DIQMTQSPSSLSASVGDRVTITCRASQDISNYLNWYQQKPDGTVKLLIYYTSRLHTGVPSRFSGSGSGTDYTLTISNLQQEDIATYFCQQGNKFPPTFGGGTKVEINR
notes: humanized, human IgG1 kappa

IC50 (Gi2 BRET, pH 6.5) (human CCR8 [1]): 0.021 µg/ml and 0.143 nM
IC50 (Gi2 BRET, pH 7.4) (human CCR8 [1]): 0.163 nM and 0.024 µg/ml
hCCL1 (100 nM) residual response, Protocol #2, mAb 0.08 µg/mL (human CCR8 [2]): 81%
hCCL1 (100 nM) residual response, Protocol #2, mAb 0.4 µg/mL (human CCR8 [2]): 69%
hCCL1 (100 nM) residual response, Protocol #2, mAb 10 µg/mL (human CCR8 [2]): 44%
hCCL1 (100 nM) residual response, Protocol #3, mAb 0.05 µg/mL (human CCR8 [2]): 77%
hCCL1 (100 nM) residual response, Protocol #3, mAb 0.5 µg/mL (human CCR8 [2]): 57%
hCCL1 (100 nM) residual response, Protocol #3, mAb 5 µg/mL (human CCR8 [2]): 49%
binding result (pm5): binds
binding result (pm6): binds
binding result (pm8): binds
binding result (pm3): binds
% positive cells (human CCR8 [10]): 72.8%
MFI fold change to isotype ctrl (human CCR8 [10]): 6.32 fold
IC50 (read off the curve) (human CCR8 [11]): ~1 µg/mL
B2: 3-5 (antibody, V domains shown)
VH: EVQLLESGGGLVQPKGSLKLSCAASGFTFNPYAMNWVRQAPGRGLEWVARIRSKSNNYATYYADSVKDRFTISRDDSQDMLYLQMNNLKTEDTAMYYCVRGREAYYRYDGDYYAMDYWGQGTSVTVSS
VL: DIVMTQAAPSVPVTPGESVSISCRSSKSLLHSNGNTYLYWFLQRPGQSPQLLIYRMSNLASGVPDRFSGSGSGTAFTLRISRVEAEDVGVYYCMQHLEYPFTFGSGTKLEIK

— patent US20260234276A1 (DOMAIN THERAPEUTICS, published 2026)
